Data from US20140271668.

Experiments:
[1] = biological target: lentiviral wild type parkin (expressed in transfected neuroblastoma cells), O60260
[2] = biological target: T1, non-catalytic mutant T240R parkin (lentiviral), O60260
T1 chain: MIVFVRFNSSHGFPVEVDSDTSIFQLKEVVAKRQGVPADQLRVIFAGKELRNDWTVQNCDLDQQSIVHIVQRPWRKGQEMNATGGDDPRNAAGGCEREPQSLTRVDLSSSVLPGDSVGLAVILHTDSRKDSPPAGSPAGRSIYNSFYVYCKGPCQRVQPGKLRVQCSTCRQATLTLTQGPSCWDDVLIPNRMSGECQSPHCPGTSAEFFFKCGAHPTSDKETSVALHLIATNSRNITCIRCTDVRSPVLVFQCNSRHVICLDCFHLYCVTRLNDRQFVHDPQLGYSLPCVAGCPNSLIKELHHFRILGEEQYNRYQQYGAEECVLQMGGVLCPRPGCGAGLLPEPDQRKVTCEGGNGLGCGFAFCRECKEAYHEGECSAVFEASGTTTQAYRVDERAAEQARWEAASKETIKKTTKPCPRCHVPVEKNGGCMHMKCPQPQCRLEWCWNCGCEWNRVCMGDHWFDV

B1: lentiviral USP13 (expressed in transfected neuroblastoma cells) (protein)
chain: MQRRGALFGMPGGSGGRKMAAGDIGELLVPHMPTIRVPRSGDRVYKNECAFSYDSPNSEGGLYVCMNTFLAFGREHVERHFRKTGQSVYMHLKRHVREKVRGASGGALPKRRNSKIFLDLDTDDDLNSDDYEYEDEAKLVIFPDHYEIALPNIEELPALVTIACDAVLSSKSPYRKQDPDTWENELPVSKYANNLTQLDNGVRIPPSGWKCARCDLRENLWLNLTDGSVLCGKWFFDSSGGNGHALEHYRDMGYPLAVKLGTITPDGADVYSFQEEEPVLDPHLAKHLAHFGIDMLHMHGTENGLQDNDIKLRVSEWEVIQESGTKLKPMYGPGYTGLKNLGNSCYLSSVMQAIFSIPEFQRAYVGNLPRIFDYSPLDPTQDFNTQMTKLGHGLLSGQYSKPPVKSELIEQVMKEEHKPQQNGISPRMFKAFVSKSHPEFSSNRQQDAQEFFLHLVNLVERNRIGSENPSDVFRFLVEERIQCCQTRKVRYTERVDYLMQLPVAMEAATNKDELIAYELTRREAEANRRPLPELVRAKIPFSACLQAFSEPENVDDFWSSALQAKSAGVKTSRFASFPEYLVVQIKKFTFGLDWVPKKFDVSIDMPDLLDINHLRARGLQPGEEELPDISPPIVIPDDSKDRLMNQLIDPSDIDESSVMQLAEMGFPLEACRKAVYFTGNMGAEVAFNWIIVHMEEPDFAEPLTMPGYGGAASAGASVFGASGLDNQPPEEIVAIITSMGFQRNQAIQALRATNNNLERALDWIFSHPEFEEDSDFVIEMENNANANIISEAKPEGPRVKDGSGTYELFAFISHMGTSTMSGHYICHIKKEGRWVIYNDHKVCASERPPKDLGYMYFYRRIPS
**Q.** How did the “parkin ubiquitination (E3LITE ubiquitin ligase ELISA with E1, UbcH7, ATP and WT ubiquitin)” value [1] turn out when B1 was run?
**A.** USP13 significantly decreased (36%) parkin ubiquitination

**Q.** What about the “ubiquitinated parkin level (parkin immunoprecipitation and Western blot with anti-ubiquitin antibodies)” value [1] of the same protein?
**A.** decreased ubiquitinated parkin level when parkin was co-expressed with USP13

**Q.** And the “level of ubiquitinated proteins (parkin immunoprecipitation and Western blot with anti-ubiquitin antibodies)” value [2]?
**A.** the level of ubiquitinated proteins when mutant T240R parkin was expressed was unaltered in the presence or absence of USP13
